# Laboratory results reported in the DeepSol protein solubility set.
# Test: soluble on expression in E. coli; label from the status in PepcDB or PDB records
row,Sequence,soluble on expression in E. coli
1,MGSDKIHHHHHHMKFIHTSDWHIGRQLHNQSLLDDQAFVLEQIIALADEHKVDAVIVAGDIYDRSIPPANAVALLDDVLNRLVHDLGLQVIMIAGNHDGHERLGFAAKQMAASGLHIIGPLSADIHPITLSSSSGDVVFYPLPYAEPATVRQVFECEAASHEAAMTLLLEQVRQHDSQGLPKVVISHCFLDGGSESESERPLSIGGADKISPTLFTEFDYVALGHLHGPQYKGAEHVRYSGSILKYSFSEQHQHKSVTLVELSAQTPIKIRLLPLTSIRDVRILEGELATLLVQGKTDIKREDYLMVRLLDKHAILDAMGKLRAVYPNVLHLERTGLMAGQQQVTLSRDHIKKGEMDMFRDFFSQVSGESLTQAQQAVMDELLTKLHNEERQA,not soluble
2,MGSDKIHHHHHHMKFVQKIYYFLFKLVGFLPRRKELVMFESFSGKQYSCNPRAIFEYMEEHNPEYELLWSVNPKYVDLFEAHGVPYVKRFSVNWLFKMGLAKFWISNSRLPLELPKPKKTIYVQTWHGTPLKKLGVDIDEVHMPGQTTEQYKADFVKEAQKWDYLISPNAYSSTIFRRAFGFTGEMIESGYPRNDILFSADKELKIANIKMALNIPEDKKVILYAPTWRDNDFYEIGKYKFDLKIDIAKMQEKFGDEVVLLVRMHYLVAEHFDFTQYGDFVRDASKHEDIRDLYLVSDLLITDYSSVFFDYANLKRPMLFYTYDLAEYRDTLRGFYFDFEQNAPGPLVEMNDALMAEIEIMLENPPQIAESFLEQFCTWEDGHAAEKTVKKVFAEK,not soluble
3,MGSDKIHHHHHHMKGMEEVVIDAKDMHYRELNEKIHEILRENPDIKKIVLKNVLGQRFIADGIQKKDLTIEIYGIPGGDLGMFMSGPTIIVHGNAEFAPGNTMDDGTIVIYGSSGDVTAHSMRGGKVFVRGDVGYRSGIHMKAYKDKVPVLVIGGRAKDFLGEYMAGGIIIVLNIDEKGNDLGKVKGRMIGTGIHGGAIYIRGEIDKDQLGVAADIKEFTEEDLEKIKPYIEEFCKWFNLPEDVKNKLLNSKWTKIAPISKRPFGKLYTPDLM,not soluble
4,MGSDKIHHHHHHMKIAIITDGSVEMGMGHVYRTLSLANELRKFNVNEIIFFTKSDEDVIKKIEENGFKVIKCSDNNDILKNIKNIKPDVVIIDDLGIEEDFAKNIRELCKKLIFFDNPNPSSNKYADIVVNAIVGSELKNRKYFDEENKTLYFYGPKYLILRNEFYKVKKEMLSRSKNKETKNILIAFGGSDPSNLTCKVLEELLSKDRDFNINVVLGPKFQYEDELNNLLKRYSKSDKIKIYKNIDNMAELMKDNDLIITSPGMTMFEALFLGIPVVVLYQNELQRECYDDYLKKISKTHLNPLKEGYFIDAEHTDLHIGKGKFEIIEAITNIYNCKKIGEDSKIIIRQITDNDLELLMAWRSNPLIYKFFYIQKEPLKWEEHYSWWMSRENRVDWIILLRENNTIRKVGSVNVSQLNTDNPEIGILIGEFFLWGKHIGRHSVSLVLKWLKNIGYKKAHARILENNIRSIKLFESLGFKKTKKGRENEWIYEVNL,not soluble
5,MGSDKIHHHHHHMKIAIVGGPTAVGKTDIMIEVCEEIGAEIISMDSRQIYRYMDIGTAKPTPEQRKRVLHHMIDIIDPDEYYNAFMYRKDSLRAMEDVLRRGKIPVYVGGTGLYADALVRGIFEGVPADENIRKELRELERREPGILRKMLEELDPEAATRIHPNDLKRTIRALEVYMKTGRRISELQKEAKGDDRFFIIVLTRERYELYERINKRVDKMIEMGLVDEVKRLLGMGYSKDLNSMKTIGYKEVIDYLEGKYDFDKMVHLIKRNTRHFARRQIIWFKRYKEAVWYNLTFEDVGEVKEKLKKLIVENFSV,not soluble
6,MGSDKIHHHHHHMKIGFIGTGNMGTILIESFIESKAADPSNMTITNRTIEKALHIKNRYNSINVTESLEKLVSENEMIFICVKPLDIYPLLARALPYLRKDHILISITSPVQTEQLEQYVPCQVARVIPSITNRALAGVSLVTFGTSCGESAKAKINELMQHISHPLQIESDITRVASDIVSCGPAFMSYLIQRFIDAAVSETSVSKQDAILMCKEMLVGMGKLLETELYTLPALQEKVCVKGGVTGEGIKALESGVQDMFHRVFQNTHMKYEEDISAVKKQFHV,not soluble
7,MGSDKIHHHHHHMKIGFVGAGVGTLHAALLLTKRYPEVEITIFEKESRAGGRLASVDFETGGRIDQGPTIVLMPGKLQEQLREAGLEGVELERIDPLYDLHFDDGTIVTKQADVVDQTIAIERQFGEGRGFQEFMQQKAKDYDVSVSKFLERTYSRKRDLLHPDMLAPLVKMHAMETAHDHLKRFFKSKHLRMAYSFPTFYIGGNPYTTPSIYGLIPYREQEEGVWYVKGGYFSLAERMYEALVERGVTFKFNQPVDRVLIQQGQTKGLVAAGQEYVYDTVVLNGEFPLMEYLVEGKQPKKYVPSGGTLLLYFKIDGKVDLPVHRFLMPSDLKPLMTSIFKKNELPENPAVYLFNPSKIDDALTASGTSVVYALVPSPRGFDQANYEAHGFIDQILDKIEQHLPGFQSQVTEMKIRTPQDAQDFGLYEGGSFGIAPTIRQSAALKTQAKPYADIERLYAVGASVHPCGGVPIVMMGATLLVNRMEQEMRWKNGYSDERISSM,not soluble
8,MGSDKIHHHHHHMKIIHIVESSATGTLSMVCLIANRLAREGHDVHVIYSVRPDTPPALAAMFDTRVSLRHVQMKGAGLLRIAGRLRATLNEIGPDVVHLHSSFAGFLGRLSTLFALPKAAFFYSPHCISFMRRDISGVKRMAFIGLEWIACVRKCLYVACSESEGHAIRAWLRQPVVVVENAVSDTRSPQRSGDAERLADGPPCVVTVGGIRAQKNPELFARIAHGMRARGTRFVWIGDGDAAEKARLAEAGVEVTGWLPRDEVVRRLERADVYLSTSSWEGMPVSVIEAMLAGRPVIVSDCAGNVDVVRHLQTGLIYTTASDAIAWLERLAGDDALRRELARRASREARQRFGEERLFGELAPLYAASVAR,not soluble
9,MGSDKIHHHHHHMKILITGATGFVGRRLVKSLSEHQLIILTRNINNAKNNLGSHHQYWQTLTDKSDLNDIDAVINLAGEPIVNKRWSNKQKKLICDSRWDITAALTQLISKSTTPPHTFISASAVGYYGRQDQNPVDETSGFHAEFSHDICQKWEDLALQAQSQQTRVCITRIGIVLGKNGGALAKMLPPFKLGLGGPIGSGEQGMSWIHVDDLISLMAYLLSNTDLQGIFNATAPQPVSNAKFAKALGNALNRPAKITTPPLALRLAMGEMSELLTTGQFVLPKRTLAAGFEFKYSDINSALDHITHSAN,not soluble
10,MGSDKIHHHHHHMKIMSIELGKFNQLEVVKQVDFGMYLDGGEEGEILLPTRYVPEDCKLGDWLNVFLYLDNEERLIATTLTPLVQVGEFACLEVSWVNQFGAFLNWGLMKDLFVPFSEQKMKMQVGNKYVIHAHIDDESFRIVASAKVDRYLSKEKASYQPGEEVNILIWQKTDLGFKAIIENMYSGLLYDSEIFQTLHTGDVLKAYVKQVREDGKIDLILQKPGFEKIDDFSKTLHRYITEHGGWIGLTDKSPAEEIYDTFGVSKKTFKKAVGDLYKKRLILLHEDGIELVRP,not soluble
11,MGSDKIHHHHHHMKIRLTQLQCSSSSVTVDINDWVIEPQQSWGVFSTEGDVGALLGQLLTQQIDAQTLTYSGDIIGVTPASVALVSLLEQQSLLEAILEQDDSESLGYTDPKTTVFGVVFNQCHDNDLTHQLLQQLDLTHLSLSPFAQLSTGEGRRVMLARAVATQVPFLVLDEPYAGLDVAHRQTLTEYLQQLSQTKQILVVVSREEDMPDWIEHVAMFSHGKLDTMMTKSQWDNHPVIAQLTAQAGQQSDDILALIRRHRHKPLFANPVFQLNNGRVAYSDKVIFSGVNWRIDNGVHWQVKGPNGCGKSTLLGLIFGDHPQCYSNDIDIFGNKRGSGESIWEIKKHIGMVSSALHLQYRVNCSALDVIVSGFYDSIGLYQKPTAQQISVATEWLAILHMGHLSKTAFRQLEYGQQRLLLIARAIVKQPTLLILDEPYQGLDYLGRRLIKNALELIAKEHLSQLLYVSHYQEDSLDSIQHYIEFVKDENQDGYRAVVSQG,not soluble
12,MGSDKIHHHHHHMKISFPHMGYSYIAFKWLVNHLGHECIVPPEPSKKTLDLGVRYSPEFACIPFKILMGTYLEVAEKGAEIILTSGGMGPCRAGYYWVMHQYILDEIGKKVKVIAFEPPLCDLRDFWRKLHRLRVSGGLSVKAFIQVLKVAWEKIKAIDDMEMQSHSIRPYEEKRGDTTRALWKALEFVDEANGEDEVNEARQEGLKVLQGVRRDENRDPLKIGIIGEIYVVLEPSANHYLQIMLGEMGVYTDRSIYLSSYTRKNTIVNLEGDIFQVARPYLNEAPIGGHGVNSIGETILYARHGFDGVVQLAPFACIPEIVAKSIIPAVSRDFNIPVLTLFIDEQTGKAGVQTRLEAFVDLLEKRREHKRQRERWAI,not soluble
